According to patent publication US20130289246A1 (VANDERBILT UNIVERSITY, published 2013):
Like-named read-outs stand apart in the source and are kept apart here.

Tests used:
[1] = molecular target: T1, recombinant soluble trimeric 1918 H1 HA (A/South Carolina/1/1918, wild type) (Influenza A virus A/South …, UniProt Q9WFX3 18-529); experiment: ELISA, supernate
[2] = molecular target: T2, recombinant soluble 1968 H3 HA (A/Aichi/2/1968) (Influenza A virus A/Aichi/2/1968 (H3N2), UniProt P03437 17-530); experiment: ELISA, supernate
[3] = molecular target: T3, HA of A/South Carolina/1/1918 (H1N1), wild type, on VLP (Influenza A virus A/South …, UniProt Q9WFX3 18-566); experiment: cell-based or functional assay
[4] = molecular target: T4, HA of A/swine/Iowa/15/1930 (H1N1) virus (Influenza A virus (H1N1)); experiment: cell-based or functional assay
[5] = molecular target: T5, HA of A/Weiss/1943 (H1N1) virus (Influenza A virus (H1N1)); experiment: cell-based or functional assay
[6] = molecular target: T6, HA of A/L3/1947 (H1N1) virus (Influenza A virus (H1N1)); experiment: cell-based or functional assay
[7] = molecular target: T7, HA of A/New Jersey/11/1976 (H1N1) virus (Influenza A virus (H1N1)); experiment: cell-based or functional assay
[8] = molecular target: T8, HA of A/USSR/92/1977 (H1N1) virus (Influenza A virus (H1N1)); experiment: cell-based or functional assay
[9] = molecular target: T9, HA of A/New Caledonia/20/1999 (H1N1) virus (Influenza A virus (H1N1)); experiment: cell-based or functional assay
[10] = molecular target: T10, HA of A/Brisbane/59/2007 (H1N1) virus (Influenza A virus (H1N1)); experiment: cell-based or functional assay
[11] = molecular target: T11, HA of A/California/04/2009 (H1N1) virus (Influenza A virus (H1N1)); experiment: cell-based or functional assay
[12] = molecular target: T2, recombinant soluble 1968 H3 HA …; experiment: ELISA, unconcentrated supernate
[13] = molecular target: T3, HA of A/South Carolina/1/1918 (H1N1), …; experiment: cell-based or functional assay; remark: listed apart in the source
[14] = molecular target: T4, HA of A/swine/Iowa/15/1930 (H1N1) virus; experiment: cell-based or functional assay; remark: listed apart in the source
[15] = molecular target: T5, HA of A/Weiss/1943 (H1N1) virus; experiment: cell-based or functional assay; remark: listed apart in the source
[16] = molecular target: T6, HA of A/L3/1947 (H1N1) virus; experiment: cell-based or functional assay; remark: listed apart in the source
[17] = molecular target: T7, HA of A/New Jersey/11/1976 (H1N1) virus; experiment: cell-based or functional assay; remark: listed apart in the source
[18] = molecular target: T8, HA of A/USSR/92/1977 (H1N1) virus; experiment: cell-based or functional assay; remark: listed apart in the source
[19] = molecular target: T9, HA of A/New Caledonia/20/1999 (H1N1) …; experiment: cell-based or functional assay; remark: listed apart in the source
[20] = molecular target: T10, HA of A/Brisbane/59/2007 (H1N1) virus; experiment: cell-based or functional assay; remark: listed apart in the source
[21] = molecular target: T11, HA of A/California/04/2009 (H1N1) virus; experiment: cell-based or functional assay; remark: listed apart in the source
[22] = molecular target: T1, recombinant soluble trimeric 1918 H1 HA …; experiment: biolayer interferometry (Octet Red), His-tagged HA on anti-Penta-HIS tips
[23] = molecular target: T1, recombinant soluble trimeric 1918 H1 HA …; experiment: ELISA, supernate; remark: listed apart in the source
[24] = molecular target: T2, recombinant soluble 1968 H3 HA …; experiment: ELISA, supernate; remark: listed apart in the source
[25] = molecular target: HA of A/Japan/305/1957 (H2N2) virus (Influenza A virus (H2N2), UniProt P03451 16-562); experiment: cell-based or functional assay
[26] = molecular target: HA of A/Ann Arbor/23/1957 (H2N2) virus (Influenza A virus (H2N2)); experiment: cell-based or functional assay
[27] = molecular target: HA of A/Rockville Illinois/5/1957 (H2N2) virus (Influenza A virus (H2N2)); experiment: cell-based or functional assay
[28] = molecular target: HA of A/Albany/6/1958 (H2N2) virus (Influenza A virus (H2N2)); experiment: cell-based or functional assay
[29] = molecular target: HA of A/Netherlands/65/1963 (H2N2) virus (Influenza A virus (H2N2)); experiment: cell-based or functional assay
[30] = molecular target: HA of A/Ann Arbor/7/1967 (H2N2) virus (Influenza A virus (H2N2)); experiment: cell-based or functional assay
[31] = molecular target: HA of A/swine/Missouri/2124514/2006 (H2N3) virus (Influenza A virus (H2N3)); experiment: cell-based or functional assay
[32] = molecular target: HA of A/Hong Kong/1/1968 (H3N2) virus (Influenza A virus (H3N2), UniProt Q91MA7 17-566); experiment: cell-based or functional assay
[33] = molecular target: T11, HA of A/California/04/2009 (H1N1) virus; experiment: cell-based or functional assay; remark: listed apart in the source
[34] = molecular target: HA of A/Vietnam/1203/2004 (H5N1) virus (Influenza A virus (H5N1)); experiment: cell-based or functional assay
[35] = molecular target: T1, recombinant soluble trimeric 1918 H1 HA …; experiment: ELISA, supernate; remark: listed apart in the source
[36] = molecular target: HA of A/Alabama/1/1981 (H3N2) virus (Influenza A virus (H3N2)); experiment: cell-based or functional assay

B1: mAb 4A10 (antibody, V domains shown)
VH: EVQLVESGGGLVQPGGSLRLSCAASGFSFSSYWMTWVRQAPGKGLEWVANIKQYGSEKYYVDSVKGRFTISRDNAKNSLYLQMNSLRDDDTAVYYCARMGSYLDTYYYHYGMDVWGQGTTVTVS
VL: QSVLTQPPSLSGAPGQRVTISCTGSSSNIGADYDVYWYQHLPGTAPKLLMYGDGYRPSGVPDRFSGSKSGTSASLAITGLQAEDEADYYCQSYDSSLSRRVVFGGGTKLTVLG
[1]
  OD: 0.725 OD
[2]
  OD: 0.072 OD
[3]
  HAI activity: 0.08 µg/mL
[4]
  HAI activity: 0.63 µg/mL
[5]
  HAI activity: > 20 µg/mL
[6]
  HAI activity: > 20 µg/mL
[7]
  HAI activity: 2.5 µg/mL
[8]
  HAI activity: 0.32 µg/mL
[9]
  HAI activity: > 20 µg/mL
[10]
  HAI activity: > 20 µg/mL
[11]
  HAI activity: 0.16 µg/mL
[12]
  binding result: no binding

B2: mAb 5J8 (antibody, V domains shown)
VH: EVQLVESGPGLVKPSDILSLTCAVSGYSISSNYYWGWIRQPPGKGLEWIGSIYHSGSTYYKPSLESRLGISVDTSKNQFSLKLSFVSAADTAVYYCARHVRSGYPDTAYYFDKWGQGTLVTVS
VL: SYVLTQPPSVSVAPGETARISCGGNNIGTKVLHWYQQTPGQAPVLVVYDDSDRPSGIPERFSGSNSGNTATLTISRVEVGDEADYYCQVWDISTDQAVFGGGTKLTVLG
[1]
  OD: 0.262 OD
[2]
  OD: 0.078 OD
[13]
  HAI activity: 0.04 µg/mL
[14]
  HAI activity: 0.04 µg/mL
  Neut titer: < 0.025 µg/mL
[15]
  HAI activity: 5 µg/mL
  Neut titer: 10 µg/mL
[16]
  HAI activity: 0.08 µg/mL
  Neut titer: 0.1 µg/mL
[17]
  HAI activity: 0.32 µg/mL
[18]
  HAI activity: 0.63 µg/mL
  Neut titer: 0.2 µg/mL
[19]
  HAI activity: > 20 µg/mL
  Neut titer: > 20 µg/mL
[20]
  HAI activity: > 20 µg/mL
[21]
  HAI activity: 0.09 µg/mL
  Neut titer: 0.0017 µg/mL
[12]
  binding result: no binding

B3: 5J8 Fab (Fab, V domains shown)
VH: EVQLVESGPGLVKPSDILSLTCAVSGYSISSNYYWGWIRQPPGKGLEWIGSIYHSGSTYYKPSLESRLGISVDTSKNQFSLKLSFVSAADTAVYYCARHVRSGYPDTAYYFDKWGQGTLVTVS
VL: SYVLTQPPSVSVAPGETARISCGGNNIGTKVLHWYQQTPGQAPVLVVYDDSDRPSGIPERFSGSNSGNTATLTISRVEVGDEADYYCQVWDISTDQAVFGGGTKLTVLG
[22]
  Kd: 190 nM
  koff: 0.036 s⁻¹
  kon: 200000 M⁻¹ s⁻¹

B4: mAb 8F8 (antibody, V domains shown)
VH: EVQLLESGGGVVQPGRSLRLSCAASGFMFSSYVMHWVRQPPGKGLEWVAVIWYDGSKTYFADSMRGRLTVSRDNSKNALYLQMNRLRAEDTAVYYCARQQDSGYSGPEVSYYSHYGMDVWGQGTTVIVS
VL: QSVLTQSPSASGTPGRAITISCSGSSSNIGSNPVNWYQQLPGAAPKLLIYADEHRPSGVPDRFSGPKSGTSASLAISGLQSEDEADYYCAAWDDSLSGPAVVFGGGTKLTVLG
[23]
  OD: 0.07 OD
[24]
  OD: 0.079 OD
[25]
  HAI activity: 0.4 µg/mL
[26]
  HAI activity: 0.1 µg/mL
[27]
  HAI activity: 0.4 µg/mL
[28]
  HAI activity: 0.32 µg/mL
[29]
  HAI activity: 0.1 µg/mL
[30]
  HAI activity: > 20 µg/mL
[31]
  HAI activity: 0.63 µg/mL
[32]
  HAI activity: > 20 µg/mL
[33]
  HAI activity: > 20 µg/mL
[34]
  HAI activity: > 20 µg/mL

B5: mAb 2K11 (antibody, V domains shown)
VH: EVQLVESGGGLVQPGGSLRLSCVASTFSLINYWMTWVRQAPGKGLEWVANIKQDGFEKYYVDSVKGRFTISRDNAKNSLYLQMNSLRVEDTAVYYCARQGSYADTYFYHYGMDVWGQGTTVTVS
VL: QSALTQPPSVSGAPGQRVTISCTGSSSNIGAGYDAYWYQQLPGTAPKLLIYGNSNRLSGVPDRFSASKSGTSASLAITGLQAEDEADYYCQSYDSSLSIFGGGTKLTVLR
[1]
  OD: 0.311 OD
[2]
  OD: 0.08 OD
[3]
  HAI activity: 0.16 µg/mL
[4]
  HAI activity: 0.16 µg/mL
[5]
  HAI activity: > 20 µg/mL
[6]
  HAI activity: > 20 µg/mL
[7]
  HAI activity: 1.3 µg/mL
[8]
  HAI activity: 0.32 µg/mL
[9]
  HAI activity: > 20 µg/mL
[10]
  HAI activity: > 20 µg/mL
[11]
  HAI activity: 0.63 µg/mL
[12]
  binding result: no binding

B6: mAb 2O10 (antibody, V domains shown)
VH: EVQLVESGGGLVQPGGSLRLSCAASGFTFNSYWMTWVRQAPGKGLEWVANINQDGSEKFFVDSVKGRFTISRDNAKTSLYLQMNSLRVEDTAVYYCAREGAPYDTYYYYYAMDVWGQGTTVTVS
VL: QSVLTQPPSVSGAPGQRVTISCTGTSSNIGAGYGVHWYQQLPGAAPKLLVYGNSNRPSGVPDRFSGSKSGTSASLAITGLQAEDEADYYCQSYDISLSGSNVFGTGTKVTVLG
[1]
  OD: 0.308 OD
[2]
  OD: 0.077 OD
[3]
  HAI activity: 0.04 µg/mL
[4]
  HAI activity: 0.08 µg/mL
[5]
  HAI activity: > 20 µg/mL
[6]
  HAI activity: > 20 µg/mL
[7]
  HAI activity: 2.5 µg/mL
[8]
  HAI activity: 2.5 µg/mL
[9]
  HAI activity: > 20 µg/mL
[10]
  HAI activity: > 20 µg/mL
[11]
  HAI activity: 0.32 µg/mL
[12]
  binding result: no binding

B7: mAb 6J24 (antibody, V domains shown)
VH: EVQLVESGGGLVQPGRSLRLSCVGSGFNFDGYAMQWVRQVPGKGLEWVSGISWHSDSTGYADSVRGRFTISRDNAKNSLYLQMDSLRPEDTAFYYCGKSIGHVGGSYRHPIDYWGQGTLVTVS
VL: DIQLTQSPSSLSASVGDRVTITCRASQGITDYLAWYQQKPGTIPKLLIYAASTLQSGVPSRFSGGGYGTDFTLTISSLQPEDVATYYCQKYNSAPLTFGGGTKVEIKR
[35]
  OD: 0.072 OD

B8: mAb 2G1 (antibody, V domains shown)
VH: EVQLVESGAEVKKPGSSVKVSCKASGGTFITHVFTWVRQAPGQGLEWVGGFIAIFGTSNYAQKFQGRVTITADESTSTAYMELTSLTSEDTAVYYCARGISGSYGWFDPWGQGTLVTVS
VL: DIQLTQSPSSLSASVGDRVTITCQASQDIRKYLNWYQQKPGKAPNLLIYDASNVKTGVPSRFRGSGSGTDFTFTISSLQPEDIATYYCQQYDNLPITFGQGTRLEIKR
[25]
  HAI activity: 0.7 µg/mL
[26]
  HAI activity: 0.025 µg/mL
[27]
  HAI activity: 0.2 µg/mL
[28]
  HAI activity: 0.32 µg/mL
[29]
  HAI activity: 0.05 µg/mL
[30]
  HAI activity: > 20 µg/mL
[31]
  HAI activity: 0.63 µg/mL
[32]
  HAI activity: 5 µg/mL
[36]
  HAI activity: > 50 µg/mL
[33]
  HAI activity: > 50 µg/mL
[34]
  HAI activity: > 50 µg/mL
